Results as given in patent US20150098945A1 (Daiichi Sankyo, published 2015).
Changes are numbered by the printed parent chain. Each block holds one binder with its values, some of them ahead of it.

What was measured:
[1] = molecular target: T1, human ROBO2 (pCI-hROBO2-transfected HEK293 cells) (human); assay: flow cytometry (FC500), HEK293 cells transfected with pCI-hROBO2, FITC goat anti-human IgG Fc; control histogram IgG (human IgG)
T1 chain: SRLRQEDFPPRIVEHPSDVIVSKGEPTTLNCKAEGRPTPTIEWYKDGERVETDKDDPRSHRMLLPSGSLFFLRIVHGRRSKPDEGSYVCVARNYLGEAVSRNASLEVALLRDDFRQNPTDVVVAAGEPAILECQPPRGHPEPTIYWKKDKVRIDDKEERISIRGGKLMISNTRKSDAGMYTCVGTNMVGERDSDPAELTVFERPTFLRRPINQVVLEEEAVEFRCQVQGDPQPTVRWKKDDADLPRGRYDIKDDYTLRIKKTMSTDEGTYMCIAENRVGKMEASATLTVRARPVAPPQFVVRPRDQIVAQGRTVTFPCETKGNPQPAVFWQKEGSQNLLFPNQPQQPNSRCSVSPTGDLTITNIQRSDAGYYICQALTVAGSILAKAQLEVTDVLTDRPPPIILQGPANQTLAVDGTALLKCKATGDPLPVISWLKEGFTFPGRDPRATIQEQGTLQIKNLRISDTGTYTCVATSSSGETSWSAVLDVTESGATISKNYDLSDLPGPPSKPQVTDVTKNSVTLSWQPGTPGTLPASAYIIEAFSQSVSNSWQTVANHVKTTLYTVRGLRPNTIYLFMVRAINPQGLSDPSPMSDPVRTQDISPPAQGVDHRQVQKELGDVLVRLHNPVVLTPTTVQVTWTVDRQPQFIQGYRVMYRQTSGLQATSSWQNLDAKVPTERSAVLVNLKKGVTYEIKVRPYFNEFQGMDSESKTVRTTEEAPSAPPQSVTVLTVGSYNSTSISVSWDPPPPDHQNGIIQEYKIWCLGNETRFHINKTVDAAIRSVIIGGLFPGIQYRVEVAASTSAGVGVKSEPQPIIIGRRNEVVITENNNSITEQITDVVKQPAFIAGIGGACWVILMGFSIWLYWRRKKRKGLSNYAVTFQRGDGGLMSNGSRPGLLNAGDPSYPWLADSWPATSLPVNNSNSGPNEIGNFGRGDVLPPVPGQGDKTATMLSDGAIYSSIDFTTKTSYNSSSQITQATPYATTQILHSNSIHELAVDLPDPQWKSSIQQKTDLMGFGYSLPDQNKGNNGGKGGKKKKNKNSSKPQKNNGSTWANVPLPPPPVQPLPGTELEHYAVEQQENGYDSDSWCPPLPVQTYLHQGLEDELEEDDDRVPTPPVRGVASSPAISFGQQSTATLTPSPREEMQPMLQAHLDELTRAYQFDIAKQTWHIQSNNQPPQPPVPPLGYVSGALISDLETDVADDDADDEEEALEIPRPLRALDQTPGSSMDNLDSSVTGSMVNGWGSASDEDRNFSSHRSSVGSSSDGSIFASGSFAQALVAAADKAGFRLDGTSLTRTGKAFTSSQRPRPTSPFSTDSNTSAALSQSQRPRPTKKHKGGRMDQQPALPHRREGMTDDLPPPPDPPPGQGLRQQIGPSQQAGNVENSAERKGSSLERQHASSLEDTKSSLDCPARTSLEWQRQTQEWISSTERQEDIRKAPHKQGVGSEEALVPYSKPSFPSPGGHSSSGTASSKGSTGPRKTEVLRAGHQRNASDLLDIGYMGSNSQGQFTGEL

[2] = molecular target: T2, human ROBO3 (pCI-hROBO3-transfected HEK293 cells) (human, UniProt Q96MS0 21-1386); assay: flow cytometry (FC500), HEK293 cells transfected with pCI-hROBO3, FITC goat anti-human IgG Fc; control histogram IgG (human IgG)
T2 sequence: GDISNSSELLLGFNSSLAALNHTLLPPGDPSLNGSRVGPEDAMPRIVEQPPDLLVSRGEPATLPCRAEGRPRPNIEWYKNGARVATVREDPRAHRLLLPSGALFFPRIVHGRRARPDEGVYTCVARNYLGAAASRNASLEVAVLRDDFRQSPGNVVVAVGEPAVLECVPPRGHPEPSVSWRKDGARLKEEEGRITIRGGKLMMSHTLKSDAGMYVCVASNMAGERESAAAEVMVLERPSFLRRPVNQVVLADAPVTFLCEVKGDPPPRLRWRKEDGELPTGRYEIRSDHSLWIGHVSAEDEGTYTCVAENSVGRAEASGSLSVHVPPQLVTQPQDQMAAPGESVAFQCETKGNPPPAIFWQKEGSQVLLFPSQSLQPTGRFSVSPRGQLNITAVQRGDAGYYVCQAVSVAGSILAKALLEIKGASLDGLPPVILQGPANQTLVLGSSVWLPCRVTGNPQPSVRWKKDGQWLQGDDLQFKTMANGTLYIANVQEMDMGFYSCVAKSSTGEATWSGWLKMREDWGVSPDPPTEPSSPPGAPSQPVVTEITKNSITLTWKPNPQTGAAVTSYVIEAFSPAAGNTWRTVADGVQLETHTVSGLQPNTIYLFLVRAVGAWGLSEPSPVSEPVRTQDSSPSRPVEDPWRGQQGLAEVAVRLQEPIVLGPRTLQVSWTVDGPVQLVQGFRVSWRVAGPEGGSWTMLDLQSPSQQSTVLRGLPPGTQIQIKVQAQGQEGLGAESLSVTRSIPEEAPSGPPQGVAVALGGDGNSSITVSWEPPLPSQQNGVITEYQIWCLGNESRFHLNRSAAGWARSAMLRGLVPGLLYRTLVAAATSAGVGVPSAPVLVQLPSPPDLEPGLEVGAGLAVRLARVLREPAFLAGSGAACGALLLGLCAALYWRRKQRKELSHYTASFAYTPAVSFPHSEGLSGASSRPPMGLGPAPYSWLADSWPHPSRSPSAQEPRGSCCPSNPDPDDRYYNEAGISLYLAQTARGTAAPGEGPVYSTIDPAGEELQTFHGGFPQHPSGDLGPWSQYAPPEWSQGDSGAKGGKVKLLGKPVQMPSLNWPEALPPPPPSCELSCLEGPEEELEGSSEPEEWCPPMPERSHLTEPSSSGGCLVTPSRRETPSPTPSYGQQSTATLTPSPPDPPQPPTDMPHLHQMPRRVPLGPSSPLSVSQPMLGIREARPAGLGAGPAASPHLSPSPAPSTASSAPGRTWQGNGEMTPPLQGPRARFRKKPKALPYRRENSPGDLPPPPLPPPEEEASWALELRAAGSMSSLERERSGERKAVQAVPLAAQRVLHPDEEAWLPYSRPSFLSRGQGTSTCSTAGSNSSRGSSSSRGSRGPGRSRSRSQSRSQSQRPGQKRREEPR

binding result [1]: no binding (tested: 10 µg/mL)
binding result [2]: no binding (tested: 10 µg/mL)
B1: humanized MAb1 antibody H-1143 (antibody, human IgG2, kappa, V domains shown)
VH: EVQLVESGGGLVQPGGSLRLSCAASGFTFSTYAMSWVRQAPGKGLEWVATISQGGTYTYYPDSVKGRFTISRDNAKNTLYLQMNSLRAEDTAVYYCARLIYYDYLDYWGQGTLVTVSS
VL: DIVMTQSPLSLPVTLGEPASISCRSSQSLENENKNLYLNWYLQKPGQSPQLLIYRVSNRFSGVPDRFSGSGSGTDFTLKISRVEAEDVGVYYCLQVTHVPWTFGPGTKVDIKR
notes: Human IgG2 / kappa constant regions; also called hMAb1-H2-type heavy chain + hMAb1-L2-type light chain

binding result [1]: no binding (tested: 10 µg/mL)
binding result [2]: no binding (tested: 10 µg/mL)
B2: humanized MAb1 antibody H-2140 (antibody, human IgG2, kappa, V domains shown)
VH: B1 VH with G44R
VL: B1 VL with E32S, K34G, L36T
notes: Human IgG2 / kappa constant regions; also called hMAb1-H4-type heavy chain + hMAb1-L1-type light chain

binding result [1]: no binding (tested: 10 µg/mL)
binding result [2]: no binding (tested: 10 µg/mL)
B3: humanized MAb1 antibody H-2143 (antibody, human IgG2, kappa, V domains shown)
VH: B1 VH with G44R
VL: B1 VL
notes: Human IgG2 / kappa constant regions; also called hMAb1-H4-type heavy chain + hMAb1-L2-type light chain
